Experimental findings from article PMC5537299, “Spatial structure of TLR4 transmembrane domain in bicelles provides the insight into the receptor activation mechanism” (Scientific Reports, 2017) are described below.

Series [1] deals with TLR4-TMICL (transmembrane domain and whole intracellular linker region of human TLR4, residues 624-670) (human). In words: NMR titration; 1H,15N-TROSY spectra at various lipid(detergent)-to-protein ratios (LPR) in DPC micelles; populations of the states from cross-peak intensities; 45 °C; 20 mM phosphate buffer pH 6.0-6.5; monomer, dimer and higher oligomer.
Series [2] concerns the molecule itself. The series is described as above.
Series [3] deals with His657 (UniProt position 657, …). In words: NMR. Conditions: 45 °C (Methods: all NMR experiments), supplementary figure captions for the same samples state 40 °C, not stated (20 mM phosphate, no added salt mentioned), Monomeric, helical, membrane-mimetic-embedded TLR4-TMICL in anionic bicelles.

“And” between values parts separate entries of the source, which are not always exact repeats. Equal values may be shown once.

As to “TLR4-TMICL (transmembrane domain and whole intracellular linker region of human TLR4, residues 624-670) (domain or fragment)”, in series [1], the stoichiometry N is 2 and 3.

B1: TLR4-TM (transmembrane domain of human TLR4 with the truncated ICL region, residues 624-657) (domain or fragment)
chain: MNITSQMNKTIIGVSVLSVLVVSVVAVLVYKFYFH
notes: not part of the stated range 624-657; human TLR4, predicted (UniProt) transmembrane and several juxtamembrane residues 624-657; 35 residues as printed; uniformly 13C/15N-labelled for NMR; cloned into pET22b by NdeI and HindIII; also called TLR-TM; source: continuous exchange cell-free expression (S30 extract of E. coli Rosetta(DE3)pLysS), as a precipitate; purified by size-exclusion …
Take B1: in series [2], the “stoichiometry N” value is 2 and 3.

B2: Toll-like receptor 4 transmembrane domain plus intracellular linker fragment (TLR4-TMICL) (Homo sapiens) (peptide)
chain: MNITSQMNKTIIGVSVLSVLVVSVVAVLVYKFYFHLLMLAGCIKYGRG
With B2, the pKa in series [3] is 6.16 ± 0.02.

As a reminder, the stoichiometry N is a count of units in the complex or per binding partner. A word on the pKa: it is the pH at which an ionisable group is half protonated.
